Assay results taken from patent publication US12397037B2, “Methods and compositions for immunomodulation” (CHILDREN'S MEDICAL CENTER CORPORATION, priority 2014, dated 2025).

How the values were obtained:
Jurkat T cells = test: Western blot of pAkt (S473) in NRP-2-expressing Jurkat T cells; assay type: cell-based, human; conditions: 30 min
Description: FIG. 20 depicts the results of Western blots of NRP-2-expressing Jurkat T cells treated with increasing concentrations of SEMA3F for 30 min. Expression of pAkt (S473) was evaluated by Western blot.
In addition, as illustrated in FIG. 20 NRP-2-expressing Jurkat T cells were treated with increasing concentrations of SEMA3F for 30 min. and expression of pAkt (S473) was evaluated by Western blot. Expression is reduced following treatment with high concentrations of SEMA3F (>600 ng/ml)
Western blotting: Proteins within each sample were separated by SDS-PAGE and transferred to nitrocellulose membranes. The membranes were blocked with 4% skimmed milk in TBS-T (0.1% Tween 20 in tris-buffered saline [TBS]) for 30 minutes, followed by incubation with the primary antibody. After washing with TBS-T, membranes were incubated with the appropriate horseradish peroxidase-conjugated secondary antibody, and immunoreactivity was detected by using ECL detection reagents.

PI-3K = test: PI3-Kinase Activity ELISA; assay type: cell-based, human
Description: FIG. 28A depicts U87MG cells untreated (control) or following treatment with SEMA3F (640 ng/ml) for 30 minutes. Cell lysates were evaluated by phosphoprotein kinase antibody array. FIG. 28B depicts results of the array validated by Western blot analysis. FIG. 28C depicts U87MG cells treated with SEMA3F (640 ng/ml) as a time course up to 60 minutes and were analyzed by Western blot. FIGS. 28B-28C are representative of 3 independent experiments. FIG. 28D depicts U87MG, Jurkat and HUVEC cells treated with SEMA3F (200, 600, 1800 ng/ml, bars from left to right) for 15 minutes (grey bars) or 30 minutes (black bars); as a positive control, HUVEC were treated with VEGF-A (25 ng/ml) for 15 and 30 minutes. In addition, HUVEC were pre-treated with SEMA3F (1800 ng/ml) or PBS as a control for 30 minutes and subsequently VEGF-A (25 ng/ml) was added to the culture for 15 and 30 minutes. PI-3K activity was analyzed by ELISA according to the manufacturer's instructions. Data represent the mean±SD of 3 experiments.
SEMA3F inhibits Akt, mTOR, and S6K phosphorylation. To determine the effect of SEMA3F on intracellular signaling responses, levels of phosphokinases in the NRP2-expressing human glioblastoma cell line U87MG were profiled.
The VEGF-A (DVE00) ELISA kit was obtained from R&D Systems (Minneapolis, MN). […]

U87MG cells [1] = test: F-actin stress fiber staining (phalloidin) in U87MG cells; assay type: cell-based, human
Description: FIG. 30A depicts U87MG cells treated with SEMA3F (640 ng/ml), rapamycin (10 nM) or Torin 1 (10 nM) for 30 minutes. Subsequently, cells were stained with Alexa Fluor 488 phalloidin and Hoechst 33342 to identify F-actin cytoskeleton stress fibers and cellular nuclei, respectively. […] The scale bar indicates 20 μm. FIG. 30B depicts U87MG cells transiently transfected with a pcDNA3.1 empty vector or with a wild type (WT) mTOR plasmid and after 18 hours treated with SEMA3F (640 ng/ml) for 30 minutes. Cells were stained as described above in FIG. 30A. Representative cellular staining is shown; bar graph represents the number of fibers/cell (mean±SD) from 3 independent experiments. FIG. 30C depicts U87MG cells transfected with control siRNA or with raptor- or rictor-specific siRNAs (20 nM). After 48 hours, they were treated with SEMA3F for 30 minutes and stained with Alexa Fluor 488 phalloidin and Hoechst 33342 as above. The number of stress fibers was evaluated in 3 independent experiments and shown as the mean±SD. FIG. 30D depicts U87MG cells transiently transfected with pcDNA3.1 empty vector or with our WT mTOR plasmid. After 18 hours, the cells were treated with SEMA3F (640 ng/ml) for 10 minutes and RhoA activity was evaluated. FIG. 30E depicts U87MG cells transfected with control siRNA or with raptor- or rictor-specific siRNAs (20 nM), were treated with SEMA3F (640 ng/ml) for 10 minutes and RhoA activity was analyzed. In FIGS. 30D-30E, the intensity of active RhoA was normalized to respective total RhoA; the numbers below each gel lane represent the fold-change in intensity relative to control. FIGS. 30D-30E are representative of 3 independent experiments.
mTORC2 links SEMA3F biology with the F-actin cytoskeleton. It was next determined whether the inhibition of mTORC2 serves as an intermediary response to link SEMA3F activity with cytoskeletal collapse. U87MG cells were treated either with SEMA3F (640 ng/ml), rapamycin (10 nM) or Torin 1 (10 nM) for 30 minutes and the actin cytoskeleton was visualized using phalloidin staining. […] These findings indicate that SEMA3F has minimal direct effects on mTORC1.
F-actin staining: Cells were fixed with 4% paraformaldehyde (PFA) followed by permeabilization with 0.2% Triton X-100 in PBS. F-actin and nuclei were stained with Alexa Fluor 488 phalloidin and Hoechst 33342, respectively. Confocal images from 3-5 areas of each culture were reviewed and stress fibers were counted in representative individual cells (˜5/experiment) using standard methodology as described6.

U87MG cells [2] = conditions: U87MG cells within 24 hours; reference 6; cited from earlier work

B1: SEMA3F: Human recombinant full-length His-Myc-tagged SEMA3F, secreted by transfected 293T cells and purified; class 3 semaphorin, NRP-2 ligand (protein, listed as Homo sapiens)
chain: MLVAGLLLWASLLTGAWPSFPTQDHLPATPRVRLSFKELKATGTAHFFNFLLNTTDYRILLKDEDHDRMYVGSKDYVLSLDLHDINREPLIIHWAASPQRIEECVLSGKDVNGECGNFVRLIQPWNRTHLYVCGTGAYNPMCTYVNRGRRAQATPWTQTQAVRGRGSRATDGALRPMPTAPRQDYIFYLEPERLESGKGKCPYDPKLDTASALINEELYAGVYIDFMGTDAAIFRTLGKQTAMRTDQYNSRWLNDPSFIHAELIPDSAERNDDKLYFFFRERSAEAPQSPAVYARIGRICLNDDGGHCCLVNKWSTFLKARLVCSVPGEDGIETHFDELQDVFVQQTQDVRNPVIYAVFTSSGSVFRGSAVCVYSMADIRMVFNGPFAHKEGPNYQWMPFSGKMPYPRPGTCPGGTFTPSMKSTKDYPDEVINFMRSHPLMYQAVYPLQRRPLVVRTGAPYRLTTIAVDQVDAADGRYEVLFLGTDRGTVQKVIVLPKDDQELEELMLEEVEVFKDPAPVKTMTISSKRQQLYVASAVGVTHLSLHRCQAYGAACADCCLARDPYCAWDGQACSRYTASSKRRSRRQDVRHGNPIRQCRGFNSNANKNAVESVQYGVAGSAAFLECQPRSPQATVKWLFQRDPGDRRREIRAEDRFLRTEQGLLLRALQLSDRGLYSCTATENNFKHVVTRVQLHVLGRDAVHAALFPPLSMSAPPPPGAGPPTPPYQELAQLLAQPEVGLIHQYCQGYWRHVPPSPREAPGAPRSPEPQDQKKPRNRRHHPPDT
modifications: His-Myc tag
notes: Human recombinant full-length His-Myc-tagged SEMA3F, secreted by transfected 293T cells and purified; class 3 semaphorin, NRP-2 ligand
For B1, the “concentration of SEMA3F at which expression of pAkt (S473) is reduced” value (Jurkat T cells) was over 600 ng/ml, the PI-3K activity (PI-3K; U87MG, Jurkat and HUVEC, SEMA3F 200, 600, 1800 ng/ml, 15 or 30 minutes) was “inhibited PI-3K activity” and the “VEGF-induced PI-3K activation” value (PI-3K; endothelial cells (HUVEC) pre-treated with SEMA3F 1800 ng/ml for 30 minutes, then VEGF-A 25 ng/ml) was “inhibited subsequent VEGF-induced PI-3K activation”. The “stress fiber formation in mTOR overexpressing cells” value (U87MG cells [1]; U87MG cells transfected with mTOR overexpression construct, SEMA3F 640 ng/ml, 30 minutes) was “minimal effects on stress fiber formation”, the “stress fiber formation and cytoskeletal arrangement” value (U87MG cells [1]; U87MG cells, SEMA3F 640 ng/ml, rapamycin 10 nM or Torin 1 10 nM, 30 minutes, vs untreated) was “markedly inhibits stress fiber formation and cytoskeletal arrangement” and the “stress fiber formation in raptor-siRNA treated cells” value (U87MG cells [1]; U87MG cells, siRNA 20 nM, SEMA3F 30 minutes) was “reduced stress fiber formation”. The “inhibition of stress fiber formation” value (U87MG cells [1]; pcDNA3.1 control vector transfected U87MG cells, SEMA3F 640 ng/ml, 30 minutes) was 90% and the apoptosis (U87MG cells [2]) was “does not induce apoptosis”.
